Test results from patent US20230139516.

Target: 6×His-c-Myc, P01106
Sequence (P01106 16-454): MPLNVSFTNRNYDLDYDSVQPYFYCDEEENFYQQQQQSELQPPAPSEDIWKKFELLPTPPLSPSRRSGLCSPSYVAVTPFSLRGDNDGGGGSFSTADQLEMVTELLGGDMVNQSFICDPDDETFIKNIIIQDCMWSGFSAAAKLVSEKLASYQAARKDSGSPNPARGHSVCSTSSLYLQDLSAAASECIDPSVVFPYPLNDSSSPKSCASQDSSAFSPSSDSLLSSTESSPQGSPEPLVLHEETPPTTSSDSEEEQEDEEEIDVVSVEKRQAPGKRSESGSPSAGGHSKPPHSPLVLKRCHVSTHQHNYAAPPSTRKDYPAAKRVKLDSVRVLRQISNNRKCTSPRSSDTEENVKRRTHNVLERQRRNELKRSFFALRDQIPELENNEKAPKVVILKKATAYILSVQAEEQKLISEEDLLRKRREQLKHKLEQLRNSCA

B1: GST-MKK7 (protein)
chain: MAASSLEQKLSRLEAKLKQENREARRRIDLNLDISPQRPRPTLQLPLANDGGSRSPSSESSPQHPTPPARPRHMLGLPSTLFTPRSMESIEIDQKLQEIMKQTGYLTIGGQRYQAEINDLENLGEMGSGTCGQVWKMRFRKTGHVIAVKQMRRSGNKEENKRILMDLDVVLKSHDCPYIVQCFGTFITNTDVFIAMELMGTCAEKLKKRMQGPIPERILGKMTVAIVKALYYLKEKHGVIHRDVKPSNILLDERGQIKLCDFGISGRLVDSKAKTRSAGCAAYMAPERIDPPDPTKPDYDIRADVWSLGISLVELATGQFPYKNCKTDFEVLTKVLQEEPPLLPGHMGFSGDFQSFVKDCLTKDHRKRPKYNKLLEHSFIKRYETLEVDVASWFKDVMAKTESPRTSGVLSQPHLPFFR
in vitro kinase assay, immunoblot for p-c-Myc-Ser62: recombinant MKK7 could directly phosphorylate c-Myc-Ser62
